Tests used:
[1] = target: Dityrosine cross-linked Aβ42 dimer [Aβ(M1-42)]DiY; test: centrifugation with thioflavin T read-out
[2] = target: Dityrosine cross-linked Aβ42 dimer [Aβ(M1-42)]DiY; test: SEC

## Dityrosine cross-linked Aβ42 dimer [Aβ(M1-42)]DiY (peptide)
[1]
  ThT signal of the end-stage sample removed by centrifugation: 80%
[2]
  decrease of the dimer peak at t = max: 40%

From article PMC5461814
